Measured values as given in FireProtDB (doi:10.1021/bi00492a006).

Details: Bacillus amyloliquefaciens; pH 6.3; 25 °C; Urea; Fluorescence; MES-NaOH 50 mM; reversible: yes; whole UniProt chain shown

B1: Ribonuclease wild type, P00648 (protein)
chain: MMKMEGIALKKRLSWISVCLLVLVSAAGMLFSTAAKTETSSHKAHTEAQVINTFDGVADYLQTYHKLPDNYITKSEAQALGWVASKGNLADVAPGKSIGGDIFSNREGKLPGKSGRTWREADINYTSGFRNSDRILYSSDWLIYKTTDHYQTFTKIR
denaturant m value: 2.21 kcal/mol/M
denaturant midpoint (higher = more stable): 4.53 M
unfolding free energy: 10 kcal/mol
